Results on six molecules are retold here after patent US20240084003A1 (SIMCERE ZAIMING PHARMACEUTICAL, published 2024).

In experiment [1] the target is T1, monkey CD22 protein (ACROBiosystems, catalog number SI2-R52Ha) (monkey, UniProt F6W485 20-688).
T1 construct: commercial protein; also called monkey CD22-ECD; monkey CD22-ECD-His
T1 sequence: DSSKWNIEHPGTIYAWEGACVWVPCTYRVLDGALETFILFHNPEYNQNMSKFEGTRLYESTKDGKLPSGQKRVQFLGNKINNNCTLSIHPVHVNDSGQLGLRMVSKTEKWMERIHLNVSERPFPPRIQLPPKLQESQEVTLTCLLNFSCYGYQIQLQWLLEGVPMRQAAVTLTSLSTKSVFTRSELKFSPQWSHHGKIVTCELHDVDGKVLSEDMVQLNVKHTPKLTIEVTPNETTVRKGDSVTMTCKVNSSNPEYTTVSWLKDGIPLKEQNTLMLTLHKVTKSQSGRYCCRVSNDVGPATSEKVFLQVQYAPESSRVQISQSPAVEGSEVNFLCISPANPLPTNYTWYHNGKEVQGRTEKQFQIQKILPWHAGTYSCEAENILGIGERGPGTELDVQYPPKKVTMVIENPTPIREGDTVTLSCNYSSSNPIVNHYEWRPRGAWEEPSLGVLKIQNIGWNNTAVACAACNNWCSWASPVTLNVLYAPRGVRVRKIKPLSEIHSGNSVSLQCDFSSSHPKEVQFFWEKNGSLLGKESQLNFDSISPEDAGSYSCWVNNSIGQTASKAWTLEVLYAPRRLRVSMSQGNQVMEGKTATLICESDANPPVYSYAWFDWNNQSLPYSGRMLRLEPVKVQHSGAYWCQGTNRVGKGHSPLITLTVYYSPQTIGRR
The experiment in a line: ELISA, coated monkey CD22 protein, antibody 10 nM. As to the method:
(§1) In order to detect the binding activity of CD22 human-murine chimeric antibodies to CD22 protein, the purified human CD22-ECD-His protein obtained in Example 2 was diluted with PBS to a final concentration of 2 μg/mL, and then added to 96-well ELISA plate at 100 μl/well. The plate was sealed with plastic film and incubated overnight at 4° C., the plate was washed 2 times with PBS the next day, and then a blocking solution [PBS+2% (w/w) BSA] was added for blocking at room temperature for 2 hours. […] After incubation at 37° C. for 2 hours, the plate was washed 3 times with PBS. HRP (horseradish peroxidase)-labeled secondary antibody (purchased from Sigma, catalog number: A0170) was added, and incubated at 37° C. for 2 hours, and the plate was washed 5 times with PBS. TMB substrate was added at 50 μl/well, and incubated at room temperature for 30 minutes, then a stop solution (1.0 N HCl) was added at 50 μl/well.
(§2) In order to detect the species cross-binding activity of the chimeric antibodies, an ELISA plate was coated with commercial murine CD22 protein (ACROBiosystems, catalog number: SI2-M52Ha) and monkey CD22 protein (ACROBiosystems, catalog number: SI2-R52Ha), respectively, and the ELISA detection was performed according to the method in Example 5.1.

Experiment [2] concerns the target T1, monkey CD22 protein (ACROBiosystems, …). The experiment in a line: ELISA, coated monkey CD22 protein, antibody 0.1 nM. As to the method:
as §1, §2
(An ELISA detects its analyte on a solid surface through an enzyme-linked reagent.)

The target is the same in experiment [3]. The experiment in a line: ELISA, coated monkey CD22 protein, antibody 100 nM. As to the method:
as §1, §2

Experiment [4] shares this target. The experiment in a line: ELISA, coated monkey CD22 protein, antibody 0.01 nM. As to the method:
as §1, §2

In experiment [5] the target is T2, CD22 on cynomolgus monkey peripheral blood B cells (cynomolgus monkey (Macaca fascicularis)).
T2 construct: whole, on cells; also called cynomolgus monkey B cells
The experiment in a line: FACS, cynomolgus PBMC, CD20+ B cells, antibody 1 nM. From the text:
(§3) The monkey peripheral blood mononuclear cells were extracted from fresh cynomolgus monkey peripheral blood (purchased from Shanghai Medicilon Inc.) according to the instructions of Ficoll-Paque Plus (purchased from GE Healthcare, catalog number: 171440-02). After the cell suspension was centrifuged, the cells were resuspended in PBS containing 1% BSA, and then the cells were counted. At the same time, the murine antibody Brilliant Violet 605 anti-human CD20 (catalog number: 302334, purchased from Biolegend) with monkey CD20 cross-binding activity and the chimeric antibodies to be tested (1 nM, 10 nM and 100 nM) were added and incubated at room temperature for 1 hour. After washing the cells three times, APC-labeled secondary antibody anti-human IgG Fc (catalog number: 409306, purchased from Biolegend) was added. After incubation at room temperature in the dark for 30 minutes, the cells were washed 5 times, gently resuspended with PBS containing 1% BSA, and detected and analyzed by FACS (FACS Canto™, purchased from BD Company). Wherein CD20 was used as a marker of B cells, and the CD20-positive B cell population was gated, the proportion of chimeric antibody positive cells was analyzed, and the proportion of chimeric antibody positive cell population to B cell population was calculated after treatments with the chimeric antibodies at the concentrations of 100 nM, 10 nM and 1 nM, respectively. The scatter plot of double-stained cells by Brilliant Violet 605-labeled CD20 and APC secondary antibody indirectly labeled chimeric antibody is shown in FIG. 10A-FIG. 10B (under the condition of 1 nM of chimeric antibody concentration).
(In general: A flow cytometer gives signals particle by particle.)

In experiment [6] the target is T1, monkey CD22 protein (ACROBiosystems, …). The experiment in a line: ELISA, coated monkey CD22 protein, antibody 0.001 nM. As to the method:
as §1, §2

For experiment [7], the target named is T2, CD22 on cynomolgus monkey peripheral …. The experiment in a line: FACS, cynomolgus PBMC, CD20+ B cells, antibody 10 nM.
Description: as §3

The target in experiment [8] is T1, monkey CD22 protein (ACROBiosystems, …). The experiment in a line: ELISA, coated monkey CD22 protein, antibody 0.0001 nM. The method, then:
as §1, §2

For experiment [9], the target named is T2, CD22 on cynomolgus monkey peripheral …. The experiment in a line: FACS, cynomolgus PBMC, CD20+ B cells, antibody 100 nM.
Description: as §3

Experiment [10] has as its target T1, monkey CD22 protein (ACROBiosystems, …). The experiment in a line: ELISA, coated monkey CD22 protein, antibody 0.00001 nM. As to the method:
as §1, §2

B1: F1.7.6 (antibody, human IgG1, kappa, V domains shown)
VH: EIQLQQSGPELVKPGTSVKVSCKASGYDFTRYNMYWVKQSHGKSLEWIGYIDPYNGDTRYNQKFKGKATLTVDKSSSTAYMHLNSLTSEDSAVYYCEAIYYDMEGYALDYWGQGTSVTVSS
VL: DIVMSQSPSSLAVSVGEKVTMSCKSSQSLLYSNNQKNYLAWYQQKPGQSPKKLIYWASTRESGVPDRLTGSGSGTDFTLTISSVTAEDLAVYYCQQFYSYPWTFGGGTKLEIKR
notes: human-murine chimeric IgG1 kappa; VL name legible
B1: the OD450 in [1] is 0.17 OD450; in experiment [2], 0.07 OD450; in [3], 0.44 OD450; in experiment [4], 0.06 OD450; in [6], 0.06 OD450; in [8] it was 0.06 OD450. The OD450 in experiment [10] was 0.06 OD450. The “Proportion of chimeric antibody positive cells to B cells (%)” value (from here on “Proportion … (%)”) in experiment [5] was determined as 17%; in [7] it was 28%; in [9], 43%.

B2: F1.105.11 (antibody, human IgG1, kappa, V domains shown)
VH: EVQLQQSGPVLVKPGASVKMSCKASGYTFSDYFMNWVKQSHGKSLEWIGIINSYSGGTSYNQKFKGKATLTVDKSSSTAYMELNSLTSEDSAVYYCARWMDYWGQGTSVTVSS
VL: DVQITQSPSYLAASPGETITINCRTSESISKHLAWYQEKPGKTNKLLIYSGSTLQSGIPSRFSGSGSGTDFTLTISSLEPEDFAMYYCQQHNEYPWTFGGGTKLEIKR
notes: as for B1
As for B2, the OD450 is 1.4 OD450 in experiment [1]; 1.31 OD450 in [2]; 1.29 OD450 in experiment [3]; 0.68 OD450 in experiment [4]; 0.17 OD450 in experiment [6]; 0.07 OD450 in experiment [8]. The molecule further gave an OD450 in experiment [10] of 0.06 OD450. The “Proportion … (%)” value stood at 46% in [5], 59% in [7] and 69% in experiment [9].

B3: F1.224.1 (antibody, human IgG1, kappa, V domains shown)
VH: EVLLHQSGPELVKPGASVKISCKASGYTFTDFNMDWVRQRHGQSLEWIGDVNPNNGGTIYNQKFKGKATLTVDKSSSTVYMDLRSLTSDDTAVYYCVRLGTSDYGEAWFISWGQGTVVTVSA
VL: DIVLTQSPASLAVSLGQRATISCRASQSVSTPRYSFMHWYQQKPGQPPKLLIKYASNLESGFPARFTGSGSGTDFTLNIHPVEEEDTAAYYCQQSWAIPWTFGGGTKLEIKR
notes: as for B1
As to B3, the OD450 in experiment [1] is 2.48 OD450; in experiment [2] it was 2.3 OD450; in experiment [3], 2.87 OD450; in experiment [4] it was 1.86 OD450; in experiment [6], 0.6 OD450; in experiment [8], 0.15 OD450. The molecule also gave an OD450 in [10] of 0.08 OD450. For the same molecule, the entries for the “Proportion … (%)” value in experiment [5], in [7] and in [9] were 83%, 96% and 97%, respectively.

B4: F1.267.9 (antibody, human IgG1, kappa, V domains shown)
VH: EVQLQQSGPVLVKPGASVKMSCKASGYTFTDFYMNWAKQSHGKSLEWVGVINPYNGGINYNQKFKGKATLTVDKSSSTAYMEFNSLTSEDSAVYYCARRMEYHAMDYWGQGTSVTVSS
VL: DIVLTQSPASLAVSLGQRATISCRASESVDNYGFDFIHWYQQKPGQPPKLLIYRASNLESGIPARFSGSGSRPDFTLTINPVETDDVATYYCQQSIKDPWTFGGGTKLEIKR
notes: as for B1
Consider B4, for which the OD450 amounted to 1.89 OD450 in [1]; 1.07 OD450 in experiment [2]; 2.27 OD450 in experiment [3]; 0.27 OD450 in experiment [4]; 0.1 OD450 in experiment [6]; 0.07 OD450 in [8]. Further, the OD450 in experiment [10] turned out to be 0.06 OD450. Further, the entries for the “Proportion … (%)” value in experiment [5], in [7] and in [9] were 39%, 91% and 95%, respectively.

B5: F1.231.15 (antibody, IgG1, V domains shown)
VH: QVQLQQPGAELVKPGASVKLSCKTSGYTFTIYWMQWVKQRPGRGLEWIGRIDPHSGDTHYNENFTTKVTLTVDETSNTAYMHLSGLTSEDSAVYYCARRDYSYYVLDYWGQGTSVTVSS
VL: DVVLTQTPLSLPVSLGDQASISCRSSQSLVHINGDTYLHWYLQKPGQSPKLLIYTVFNRFSGVPDRFSGSGSGTDFTLKISRVEAEDLGAYFCSQSTHVPYTFGGGTKLEIKR
notes: human-murine chimeric IgG1 kappa
With B5, the OD450 in [1] is 0.31 OD450; in experiment [2], 0.17 OD450; in [3], 0.45 OD450; in [4] it was 0.09 OD450; in [6], 0.06 OD450; in experiment [8], 0.06 OD450. Moreover, the OD450 in [10] is 0.06 OD450. Moreover, the “Proportion … (%)” value in experiment [5] was determined as 11%; in experiment [7], 16%; in experiment [9], 29%.

B6: F1.250.16 (antibody, human IgG1, kappa, V domains shown)
VH: QVQLQQSGAEQVKPGASVKMSCKASGYTFTTYPIEWMKQNHGESLDWIGNIHPYNDDTEYNEKFKGKATLTVEKSSNTVFLELSRLTSDDSAVYYCVRGDYYNSRYWYFDVWGTGTTVTVSS
VL: DIVMTQSQKFMSTTVGDRVSITCKAGQNVRTAVAWYQQKPGQSPKLLIYSASTRYIGVPERFTGSGSGTDFTLTITNMQSEDLADYFCQQYSSFPLTFGTGTKLELKR
notes: as for B1
On to B6, for which the OD450 in [1] came to 2.97 OD450; in experiment [2], 2.81 OD450; in [3], 3.08 OD450; in experiment [4], 2.62 OD450; in experiment [6] it was 1.02 OD450; in experiment [8] it was 0.23 OD450. In [10], this molecule gave an OD450 of 0.1 OD450. The “Proportion … (%)” value in experiment [5] is 92%; in experiment [7] it was 95%; in [9], 97%.
